# T1: human GFRα3 expressed with a C-terminal mFc tag (human)
# T1 construct: also called hGFRα3-mFc
# T1 chain: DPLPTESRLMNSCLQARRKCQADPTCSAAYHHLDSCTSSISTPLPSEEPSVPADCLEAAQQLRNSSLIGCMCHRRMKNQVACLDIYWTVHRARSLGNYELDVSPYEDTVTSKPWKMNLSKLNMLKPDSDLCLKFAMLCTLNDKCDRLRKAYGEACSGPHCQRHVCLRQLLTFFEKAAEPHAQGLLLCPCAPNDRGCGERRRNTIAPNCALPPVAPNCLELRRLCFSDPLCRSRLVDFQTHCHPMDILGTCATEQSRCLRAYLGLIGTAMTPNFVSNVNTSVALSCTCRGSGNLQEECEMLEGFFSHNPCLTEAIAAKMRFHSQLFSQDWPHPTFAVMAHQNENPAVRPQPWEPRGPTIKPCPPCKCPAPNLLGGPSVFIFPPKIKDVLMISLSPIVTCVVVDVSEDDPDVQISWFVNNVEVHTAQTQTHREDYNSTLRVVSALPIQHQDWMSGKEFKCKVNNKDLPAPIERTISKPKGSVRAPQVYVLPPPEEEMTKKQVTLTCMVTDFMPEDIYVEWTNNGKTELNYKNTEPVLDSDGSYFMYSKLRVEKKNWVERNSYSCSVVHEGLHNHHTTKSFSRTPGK
# T2: monkey GFRα3 expressed with a C-terminal myc-myc-hexahistidine tag (monkey (Mf), UniProt O60609 32-374 (human entry), limits assumed)
# T2 construct: also called MfGFRα3-mmh; MfGFRα3-mmH
# T2 chain: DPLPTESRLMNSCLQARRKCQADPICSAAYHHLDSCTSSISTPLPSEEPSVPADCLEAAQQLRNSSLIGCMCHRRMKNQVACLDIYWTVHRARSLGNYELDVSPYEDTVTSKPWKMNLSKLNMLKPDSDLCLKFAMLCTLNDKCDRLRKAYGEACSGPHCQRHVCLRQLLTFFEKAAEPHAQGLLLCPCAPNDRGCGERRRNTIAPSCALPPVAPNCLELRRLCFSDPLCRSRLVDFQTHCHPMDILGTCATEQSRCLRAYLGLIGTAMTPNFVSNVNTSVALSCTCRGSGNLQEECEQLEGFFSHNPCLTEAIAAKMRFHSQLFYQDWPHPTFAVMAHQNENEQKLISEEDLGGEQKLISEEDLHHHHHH
# Assays:
# [1] = target: T1, human GFRα3 expressed with a C-terminal …; test: SPR, Ab captured, 37C
# Procedure: (§1) Antibodies were tested for binding to human GFRα3 expressed with either a C-terminal myc-myc-hexahistidine tag (hGFRα3-mmh; SEQ ID: 370, a C-terminal hFc tag (hGFRα3-hFc; SEQ ID:371), or a C-terminal mFc tag (hGFRα3-mFc; SEQ ID:372), as well as monkey GFRα3 expressed with a C-terminal myc-myc-hexahistidine tag (MfGFRα3-mmh; SEQ ID:373). Anti-GFRα3 antibodies were captured on either a goat anti-mouse IgG polyclonal antibody (GE Healthcare, #BR-1008-38) or a mouse anti-human IgG monoclonal antibody (GE Healthcare, #BR-1008-39) surface created through direct amine coupling to a Biacore CM5 sensor chip. Kinetic experiments were carried out using HBS-EP (10 mM HEPES, 150 mM NaCl, 3 mM EDTA, 0.05% Surfactant P20, at pH 7.4) or PBS buffer containing 0.05% v/v surfactant P20 as both the running buffer and the sample buffer. Binding to human GFRα3-mmh or monkey GFRα3-mmh was evaluated by injecting several concentrations ranging from 200 to 7.4 nM (3-fold dilutions) across the captured antibody surface. Binding to human GFRα3-mFc or human GFRα3-hFc was evaluated by injecting several concentrations ranging from 100 to 3.7 nM (3-fold dilutions) across the captured antibody surface. Antibody-antigen association was monitored for up to 4 minutes, while dissociation in buffer was monitored for up to 20 minutes. Kinetic association (kₐ) and dissociation (kd) rate constants were determined by processing and fitting the data to a 1:1 binding model using Scrubber 2.0c curve fitting software. Binding dissociation equilibrium constants (KD) and dissociative half-lives (t_{1/2}) were calculated from the kinetic rate constants as: KD (M)=kd/kₐ and t_{1/2} (min)=[ln 2/(60*kd)].
# [2] = target: T2, monkey GFRα3 expressed with a …; test: SPR, Ab captured, 37C
# Procedure: as §1
# [3] = target: T3, human GFRα3 expressed with a C-terminal myc-myc-hexahistidine tag (human, UniProt O60609 32-374, biotinylated (sites not given) in ELISA format 2 and in the Octet cross-competition; not in SPR); test: Octet RED384; 25 µg/mL first antibody on streptavidin-captured biotin-hGFRα3-mmH
# T3 construct: also called hGFRα3-mmh; hGFRα3-mmH
# Procedure: (§2) A cross-competition assay was conducted to assess the ability of select antibodies to compete with one another for binding to human GFRα3 using an Octet RED384 biosensor (Fortebio Inc.). The entire experiment was performed at 25° C. with the flow rate of 1000 rpm in Octet HBST buffer (0.01 M HEPES pH7.4, 0.15M NaCl, 3 mM EDTA, 0.05% v/v Surfactant P20, 0.1 mg/mL BSA). To assess whether 2 antibodies were able to compete with one another for binding to their respective epitopes on biotinylated recombinant human GFRα3 expressed with a C-terminal myc-myc-hexahistidine tag (biotin-hGFRα3-mmH; SEQ ID:370), around ˜1.2 nm of biotin-hGFRα3-mmH was first captured onto streptavidin-coated Octet sensor tips (Fortebio Inc, #18-5019) by submerging the tips for 1 minute into a 10 μg/mL solution of biotin-hGFRα3-mmH. The antigen coated sensor tips were then placed into wells containing 25 μg/mL solution of a first anti-GFRα3 monoclonal antibody for 4 minutes to saturate the biotin-hGFRα3-mmH surface. The sensor tips were then subsequently dipped into wells containing 25 μ/mL solution of a second anti-GFRα3 monoclonal antibody. The sensor tips were washed in Octet HBST buffer in between every step of the experiment. The real-time binding response was monitored during the course of the experiment and the binding response at the end of every step was recorded as shown in FIG. 9. The response of mAb-2 binding to biotin-hGFRα3-mmH pre-complexed with the first antibody was compared and competitive/non-competitive behavior of different anti-GFRα3 monoclonal antibodies was determined.
# [4] = target: T3, human GFRα3 expressed with a C-terminal …; test: Octet cross-competition; biotin-hGFRα3-mmH pre-saturated with first antibody H4H2294S
# Procedure: as §2
# [5] = target: T3, human GFRα3 expressed with a C-terminal …; test: Octet cross-competition; biotin-hGFRα3-mmH pre-saturated with first antibody H4H2295S
# Procedure: as §2
Kd [1],koff [1],kon [1],t1/2 [1],Kd [2],koff [2],kon [2],t1/2 [2],Amount of Antibody 1 bound (nm) [3],binding response of second antibody (nm) [4],binding response of second antibody (nm) [5],Binder
0.0354 nM,4.28e-05 s⁻¹,1.21e+06 M⁻¹ s⁻¹,4.5 h,11.1 nM,0.00166 s⁻¹,150000 M⁻¹ s⁻¹,0.117 h,2.69 nm,0.01 nm,0.01 nm,"H4H2342P (antibody, human IgG4, V domains shown, human IgG4 Fc (H4H)) VH: EVQLLESGGGLVQPGGSLRLSCAASGFTFSTYAMSWVRQAPGKGLEWVSAIRGNGVNTYYGDSMKGRFTISRDNSKDTLYLQMNSLRAEDTAVYYCAKNKWELLVFEYWGQGTLVTVSS VL: DIQMTQSPSSLSASVGDRVTITCRASQDISNYLAWYQQKPGKVPKLLIYAASTLQSGVPFRFSGSGSGTDFTLTISSLQPEDVATYYCQKYNSAPPFGPGTKVDIK"
0.0289 nM,3.84e-05 s⁻¹,1.33e+06 M⁻¹ s⁻¹,5.02 h,1.94 nM,0.000693 s⁻¹,357000 M⁻¹ s⁻¹,0.283 h,2.89 nm,0.12 nm,0.2 nm,"H4H2291S (antibody, human IgG4, V domains shown, human IgG4 Fc (H4H)) VH: EVQLVESGGGLVQPGESLRLSCAASGFTFSNYAMSWVRQAPGKGLEWVSVISGSGGSTYYADSVKGRFTMSRDNSKNTLYLQMNSLRAEDTAVYYCAKPPSRAARYFNYGMDVWGQGTTVTVSS VL: AIRMTQSPSSVSASVGDRVTITCRASQGISSWLAWYQQKPGKAPKLLIYAASSLQSGVPSRFSGSGSGTDFTLTISSLQPEDFATYYCQQANSFPFTFGGGTKVEIK"
0.0294 nM,4.74e-05 s⁻¹,1.61e+06 M⁻¹ s⁻¹,4.07 h,10.3 nM,0.00285 s⁻¹,277000 M⁻¹ s⁻¹,0.0667 h,2.88 nm,0.04 nm,0.07 nm,"H4H2296S (antibody, human IgG4, V domains shown, human IgG4 Fc (H4H)) VH: not shown VL: DIVMTQSPSSVSASVGDRVTITCRASQGISSWLAWYQQKPGKAPKLLIYAASSLRSGVPSRFSGSGSGTDFTLTITSLQPEDFATYYCQHTNSFPFTFGPGTKVEIK"
0.0793 nM,9.4e-05 s⁻¹,1.19e+06 M⁻¹ s⁻¹,2.05 h,7.86 nM,0.00135 s⁻¹,172000 M⁻¹ s⁻¹,0.15 h,2.82 nm,0.03 nm,0.05 nm,"H4H2357S (antibody, human IgG4, V domains shown, human IgG4 Fc (H4H)) VH: EVQLVESGGGLVQPGGSLRLSCAASTFTFSSYAMTWVRQAPGKGLEWVSSISGSGDSTYYADSVKGRFTISRDNSKNTLFLQMNSLRAEDTAVYYCAKKDGPGRYYVRYGMDVWGQGTTVTVSS VL: DIQMTQSPSSVSASVGDRVTITCRASQGISSWLAWYQQKPGKAPKLLIYTTSSLQSGVPSRFSGSGSGTDFTLTISSLQPEDFATYYCQQANSFPLTFGGGTKVDIK"
0.0301 nM,4.88e-05 s⁻¹,1.62e+06 M⁻¹ s⁻¹,3.95 h,20.4 nM,0.00561 s⁻¹,276000 M⁻¹ s⁻¹,0.0333 h,2.83 nm,0.04 nm,0.05 nm,"H4H2295S (antibody, human IgG4, V domains shown, human IgG4 Fc (H4H)) VH: EVQLVESGGGLVQAGGSLRLSCVASGFTFSSYAMSWVRQAPGKGLEWVSAISGSGGSTYSADSVKGRFTISRDNSKNTLYLQMNSLRAEDTAVYYCTKPSSYSSSNFYYGMDVWGQGTTVTVSS VL: DIQMTQSPSSVSASVGDRVTITCRASQGISSWLAWYQQKPGKAPKLLIYTASSLQSGVPSRFSGSGSRTDFTLTISSLQPEDFATYYCQQTNSLPLTFGPGTKVEIK"
0.0209 nM,3.46e-05 s⁻¹,1.66e+06 M⁻¹ s⁻¹,5.57 h,2.25 nM,0.000974 s⁻¹,433000 M⁻¹ s⁻¹,0.2 h,2.91 nm,0.02 nm,0.02 nm,"H4H2294S (antibody, human IgG4, V domains shown, human IgG4 Fc (H4H)) VH: EVQLVESGGGLVQPGGSLRLSCAASGFTFSSYAMSWVRQAPGKGLEWVSVISGSGGSTYYADAVKGRFTISRDNSKHTLYLQMNSLRAEDTAVYYCTKPSSYSSSNFYYGMDVWGQGSTVTVSS VL: DIQLTQSPSSVSASVGDRVTITCRASQGISSWLAWYQQKPGKAPKLLIYAASSLQSGVPSRFSGSGSGTDFTLTISSLQPEDFATYYCQQTNSFPFPFGPGTKVDIK"
0.031 nM,3.39e-05 s⁻¹,1.1e+06 M⁻¹ s⁻¹,5.68 h,5.29 nM,0.000913 s⁻¹,173000 M⁻¹ s⁻¹,0.217 h,2.73 nm,0 nm,0.02 nm,"H4H2355S (antibody, human IgG4, V domains shown, human IgG4 Fc (H4H)) VH: EVQLVESGGGLVQPGGSLRLSCAASGFTFSSYAMSWVRQVPGKGLEWVSAISGSGDNTYNAESVKGRFTISRDNSKNMLYLQMNSLRAEDTAVYYCAKTKFSSSLLFDYWGQGTLVTVSS VL: not shown"

# From US20140056903A1 (Regeneron, published 2014)
